Assay results from patent publication US20160031977A1 (BETH ISRAEL DEACONESS MEDICAL CENTER, published 2016).
Square brackets hold non-standard residues; d marks the D form. Ends that are not written are not given here. pT = C[C@@H](OP(=O)(O)O)[C@H](N)C(=O)O

T1: pT231-tau peptide locked in trans (pT231-Ala)
T1 construct: also called trans pT231-tau peptide
T1 peptide: KVAVVR[pT]APKSPS

B1: Cis mAb-#74 (antibody, V domains shown)
VH: DVQLQESGPGLVKPSQSLSLTCSVTGYSITSGYYWNWIRQFPGNKLEWMGYISYDGSNNYNPSLKNRISITRDTSKNQFFLKLNSVTTEDTATYYCAGLRRDAYWGQGTLVTVSA
VL: DIQMTQTTSSLSASLGDRVTISCRASQDISNYLNWYQQKPDGTVKLLIYYTSRLHSGVPSRFSGSGSGTDYSLTISNLEQEDIATYFCQQGNTLPWTFGGGTKLEIKR
notes: Mouse monoclonal antibody from a hybridoma, screened as culture supernatant; also called cis hybridoma clone #74; cis pT231-tau mouse mAb
B2: Cis mAb-#113 (antibody, V domains shown)
VH: QVQLQQPGAELVKPGASVKMSCKASGYTFTSYWIHWVKQRPGQGLEWIGVIDPSDSYTRYNQKFKGKATLTVDTSSSTAYMQLSSLTSEDSAVYYCTTWEVDYWGQGTTLTVSS
VL: DVVMTQTPLSLPVSLGDQASISCRSSQSLVHSDGNTYLHWYLQKPGQSPKLLIYKVSNRFSGVPDRFSGSGSGTDFTLKISRLEAEDLGVYFCSQSTHVPWTFGGGTKLEIKR
notes: Mouse monoclonal antibody from a hybridoma, screened as culture supernatant; also called cis pT231-tau mouse mAb

Target: T1, pT231-tau peptide locked in trans …
Assay: ELISA, hybridoma culture supernatant on peptide
Protocol: To develop cis and trans pT231-tau mouse mAbs, 74% cis pT231-Pip tau peptide as described previously in Nakamura et al., Cell 149: 232-244, 2012 was used to immunize mice. The procedure produced 480 hybridoma clones that were then characterized. […] The nucleic acid and protein sequences including the CDRs of the mAb heavy chain and light chain are shown below. […] The DNA sequences of the heavy and light chains of the mAbs were determined using 5′ RACE RT-PCR techniques, as described in Bradbury et al., Neurobiol Aging 16:465-475, 1995. […] Predicted protein sequences are highly conserved in Framework regions, with clear differences in complementary determining region (CDR) 1-3 (FIGS. 8 and 9).

Binder | binding result
B1 | no binding
B2 | no binding
